Starred links: 1 amine or outer side, 2 acyl side, 3 side chain; linkers in the order of their positions; H or OH if unused. Positions of bridges follow the written chain, without caps; N, C: chain ends. Non-standard residues stand in square brackets, D forms with d. *: point of attachment. pXylylene = c1cc(C[*:2])ccc1C[*:1]; Palmitoyl = CCCCCCCCCCCCCCCC(=O)*; tBuAla = CC(C)(C)C[C@H](N)C(=O)O; Suc = O=C(CCC(=O)[*:2])[*:1]; Hexanoyl = CCCCCC(=O)*; Pentanoyl = CCCCC(=O)*; Butyryl = CCCC(=O)*
B1: peptide 92 (peptide)
peptide: Pentanoyl-ECYLCLIEELIRKAQEQQEKNEAALR-NH2
modifications: linker 2-5 via pXylylene
SMILES: CCCCC(=O)N[C@@H](CCC(=O)O)C(=O)N[C@H]1CSCc2ccc(cc2)CSC[C@@H](C(=O)N[C@@H](CC(C)C)C(=O)N[C@H](C(=O)N[C@@H](CCC(=O)O)C(=O)N[C@@H](CCC(=O)O)C(=O)N[C@@H](CC(C)C)C(=O)N[C@H](C(=O)N[C@@H](CCCNC(=N)N)C(=O)N[C@@H](CCCCN)C(=O)N[C@@H](C)C(=O)N[C@@H](CCC(N)=O)C(=O)N[C@@H](CCC(=O)O)C(=O)N[C@@H](CCC(N)=O)C(=O)N[C@@H](CCC(N)=O)C(=O)N[C@@H](CCC(=O)O)C(=O)N[C@@H](CCCCN)C(=O)N[C@@H](CC(N)=O)C(=O)N[C@@H](CCC(=O)O)C(=O)N[C@@H](C)C(=O)N[C@@H](C)C(=O)N[C@@H](CC(C)C)C(=O)N[C@@H](CCCNC(=N)N)C(N)=O)[C@@H](C)CC)[C@@H](C)CC)NC(=O)[C@H](CC(C)C)NC(=O)[C@H](Cc2ccc(O)cc2)NC1=O
B2: peptide 91 (peptide)
peptide: Pentanoyl-ECYLRCIEELIRKAQEQQEKNEAALR-NH2
modifications: linker 2-6 via pXylylene
SMILES: CCCCC(=O)N[C@@H](CCC(=O)O)C(=O)N[C@H]1CSCc2ccc(cc2)CSC[C@@H](C(=O)N[C@H](C(=O)N[C@@H](CCC(=O)O)C(=O)N[C@@H](CCC(=O)O)C(=O)N[C@@H](CC(C)C)C(=O)N[C@H](C(=O)N[C@@H](CCCNC(=N)N)C(=O)N[C@@H](CCCCN)C(=O)N[C@@H](C)C(=O)N[C@@H](CCC(N)=O)C(=O)N[C@@H](CCC(=O)O)C(=O)N[C@@H](CCC(N)=O)C(=O)N[C@@H](CCC(N)=O)C(=O)N[C@@H](CCC(=O)O)C(=O)N[C@@H](CCCCN)C(=O)N[C@@H](CC(N)=O)C(=O)N[C@@H](CCC(=O)O)C(=O)N[C@@H](C)C(=O)N[C@@H](C)C(=O)N[C@@H](CC(C)C)C(=O)N[C@@H](CCCNC(=N)N)C(N)=O)[C@@H](C)CC)[C@@H](C)CC)NC(=O)[C@H](CCCNC(=N)N)NC(=O)[C@H](CC(C)C)NC(=O)[C@H](Cc2ccc(O)cc2)NC1=O
B3: peptide 7 (peptide)
peptide: Suc-ANYLALIEALIRAAQEQQEKNEAALR-NH2
SMILES: CC[C@H](C)[C@H](NC(=O)[C@H](CC(C)C)NC(=O)[C@H](C)NC(=O)[C@H](CCC(=O)O)NC(=O)[C@@H](NC(=O)[C@H](CC(C)C)NC(=O)[C@H](C)NC(=O)[C@H](CC(C)C)NC(=O)[C@H](Cc1ccc(O)cc1)NC(=O)[C@H](CC(N)=O)NC(=O)[C@H](C)NC(=O)CCC(=O)O)[C@@H](C)CC)C(=O)N[C@@H](CCCNC(=N)N)C(=O)N[C@@H](C)C(=O)N[C@@H](C)C(=O)N[C@@H](CCC(N)=O)C(=O)N[C@@H](CCC(=O)O)C(=O)N[C@@H](CCC(N)=O)C(=O)N[C@@H](CCC(N)=O)C(=O)N[C@@H](CCC(=O)O)C(=O)N[C@@H](CCCCN)C(=O)N[C@@H](CC(N)=O)C(=O)N[C@@H](CCC(=O)O)C(=O)N[C@@H](C)C(=O)N[C@@H](C)C(=O)N[C@@H](CC(C)C)C(=O)N[C@@H](CCCNC(=N)N)C(N)=O
B4: peptide 88 (peptide)
peptide: Suc-ECYLRCIEELIRKAQEQQEKNEAALRGSGK(Palmitoyl)-NH2
modifications: linker 2-6 via pXylylene
SMILES: CCCCCCCCCCCCCCCC(=O)NCCCC[C@H](NC(=O)CNC(=O)[C@H](CO)NC(=O)CNC(=O)[C@H](CCCNC(=N)N)NC(=O)[C@H](CC(C)C)NC(=O)[C@H](C)NC(=O)[C@H](C)NC(=O)[C@H](CCC(=O)O)NC(=O)[C@H](CC(N)=O)NC(=O)[C@H](CCCCN)NC(=O)[C@H](CCC(=O)O)NC(=O)[C@H](CCC(N)=O)NC(=O)[C@H](CCC(N)=O)NC(=O)[C@H](CCC(=O)O)NC(=O)[C@H](CCC(N)=O)NC(=O)[C@H](C)NC(=O)[C@H](CCCCN)NC(=O)[C@H](CCCNC(=N)N)NC(=O)[C@@H](NC(=O)[C@H](CC(C)C)NC(=O)[C@H](CCC(=O)O)NC(=O)[C@H](CCC(=O)O)NC(=O)[C@@H](NC(=O)[C@@H]1CSCc2ccc(cc2)CSC[C@H](NC(=O)[C@H](CCC(=O)O)NC(=O)CCC(=O)O)C(=O)N[C@@H](Cc2ccc(O)cc2)C(=O)N[C@@H](CC(C)C)C(=O)N[C@@H](CCCNC(=N)N)C(=O)N1)[C@@H](C)CC)[C@@H](C)CC)C(N)=O
B5: peptide 11 (peptide)
peptide: Suc-ANYLALIEAL[tBuAla]RAAQEQQEKNEAALR-NH2
SMILES: CC[C@H](C)[C@H](NC(=O)[C@H](CC(C)C)NC(=O)[C@H](C)NC(=O)[C@H](CC(C)C)NC(=O)[C@H](Cc1ccc(O)cc1)NC(=O)[C@H](CC(N)=O)NC(=O)[C@H](C)NC(=O)CCC(=O)O)C(=O)N[C@@H](CCC(=O)O)C(=O)N[C@@H](C)C(=O)N[C@@H](CC(C)C)C(=O)N[C@@H](CC(C)(C)C)C(=O)N[C@@H](CCCNC(=N)N)C(=O)N[C@@H](C)C(=O)N[C@@H](C)C(=O)N[C@@H](CCC(N)=O)C(=O)N[C@@H](CCC(=O)O)C(=O)N[C@@H](CCC(N)=O)C(=O)N[C@@H](CCC(N)=O)C(=O)N[C@@H](CCC(=O)O)C(=O)N[C@@H](CCCCN)C(=O)N[C@@H](CC(N)=O)C(=O)N[C@@H](CCC(=O)O)C(=O)N[C@@H](C)C(=O)N[C@@H](C)C(=O)N[C@@H](CC(C)C)C(=O)N[C@@H](CCCNC(=N)N)C(N)=O
B6: peptide 85 (peptide)
peptide: Butyryl-ECYLACIEELIRKAQEQQEKNEAALR-NH2
modifications: linker 2-6 via pXylylene
SMILES: CCCC(=O)N[C@@H](CCC(=O)O)C(=O)N[C@H]1CSCc2ccc(cc2)CSC[C@@H](C(=O)N[C@H](C(=O)N[C@@H](CCC(=O)O)C(=O)N[C@@H](CCC(=O)O)C(=O)N[C@@H](CC(C)C)C(=O)N[C@H](C(=O)N[C@@H](CCCNC(=N)N)C(=O)N[C@@H](CCCCN)C(=O)N[C@@H](C)C(=O)N[C@@H](CCC(N)=O)C(=O)N[C@@H](CCC(=O)O)C(=O)N[C@@H](CCC(N)=O)C(=O)N[C@@H](CCC(N)=O)C(=O)N[C@@H](CCC(=O)O)C(=O)N[C@@H](CCCCN)C(=O)N[C@@H](CC(N)=O)C(=O)N[C@@H](CCC(=O)O)C(=O)N[C@@H](C)C(=O)N[C@@H](C)C(=O)N[C@@H](CC(C)C)C(=O)N[C@@H](CCCNC(=N)N)C(N)=O)[C@@H](C)CC)[C@@H](C)CC)NC(=O)[C@H](C)NC(=O)[C@H](CC(C)C)NC(=O)[C@H](Cc2ccc(O)cc2)NC1=O
B7: peptide 86 (peptide)
peptide: Hexanoyl-ECYLACIEELIRKAQEQQEKNEAALR-NH2
modifications: linker 2-6 via pXylylene
SMILES: CCCCCC(=O)N[C@@H](CCC(=O)O)C(=O)N[C@H]1CSCc2ccc(cc2)CSC[C@@H](C(=O)N[C@H](C(=O)N[C@@H](CCC(=O)O)C(=O)N[C@@H](CCC(=O)O)C(=O)N[C@@H](CC(C)C)C(=O)N[C@H](C(=O)N[C@@H](CCCNC(=N)N)C(=O)N[C@@H](CCCCN)C(=O)N[C@@H](C)C(=O)N[C@@H](CCC(N)=O)C(=O)N[C@@H](CCC(=O)O)C(=O)N[C@@H](CCC(N)=O)C(=O)N[C@@H](CCC(N)=O)C(=O)N[C@@H](CCC(=O)O)C(=O)N[C@@H](CCCCN)C(=O)N[C@@H](CC(N)=O)C(=O)N[C@@H](CCC(=O)O)C(=O)N[C@@H](C)C(=O)N[C@@H](C)C(=O)N[C@@H](CC(C)C)C(=O)N[C@@H](CCCNC(=N)N)C(N)=O)[C@@H](C)CC)[C@@H](C)CC)NC(=O)[C@H](C)NC(=O)[C@H](CC(C)C)NC(=O)[C@H](Cc2ccc(O)cc2)NC1=O
B8: peptide 90 (peptide)
peptide: Suc-ECYLACIEELIRKAQEQQEKNEAALR-NH2
modifications: linker 2-6 via pXylylene
SMILES: CC[C@H](C)[C@H](NC(=O)[C@@H]1CSCc2ccc(cc2)CSC[C@H](NC(=O)[C@H](CCC(=O)O)NC(=O)CCC(=O)O)C(=O)N[C@@H](Cc2ccc(O)cc2)C(=O)N[C@@H](CC(C)C)C(=O)N[C@@H](C)C(=O)N1)C(=O)N[C@@H](CCC(=O)O)C(=O)N[C@@H](CCC(=O)O)C(=O)N[C@@H](CC(C)C)C(=O)N[C@H](C(=O)N[C@@H](CCCNC(=N)N)C(=O)N[C@@H](CCCCN)C(=O)N[C@@H](C)C(=O)N[C@@H](CCC(N)=O)C(=O)N[C@@H](CCC(=O)O)C(=O)N[C@@H](CCC(N)=O)C(=O)N[C@@H](CCC(N)=O)C(=O)N[C@@H](CCC(=O)O)C(=O)N[C@@H](CCCCN)C(=O)N[C@@H](CC(N)=O)C(=O)N[C@@H](CCC(=O)O)C(=O)N[C@@H](C)C(=O)N[C@@H](C)C(=O)N[C@@H](CC(C)C)C(=O)N[C@@H](CCCNC(=N)N)C(N)=O)[C@@H](C)CC

molecular target: gp41 of HIV-1 strain HXB2D with mutation V38A (HIV-1 strain HXB2D, UniProt P04578); test: cell-based or functional assay

**Q.** For Ac-ENYLALIEALIRAAQEQQEKNEAALR-NH2 [peptide 8], which “fold change in EC50, HIV-HXB2D V38A mutant” value (shortened to “fold change in EC50”) is on record?
**A.** The value was 46 fold.

**Q.** How did the “fold change in EC50” value turn out when B1 was run?
**A.** Its value is 2 fold.

**Q.** For B2, which “fold change in EC50” value is on record?
**A.** The value was 2 fold.

**Q.** How did the “fold change in EC50” value turn out when B3 was run?
**A.** Its value is 33 fold.

**Q.** B4 was tested. Which “fold change in EC50” value did it give?
**A.** Its value is 1 fold.

**Q.** For Ac-ANYLALIEELIRAAQEQQEKNEAALR-NH2 [peptide 10], which “fold change in EC50” value is on record?
**A.** The value was 50 fold.

**Q.** B5 was tested. Which “fold change in EC50” value did it give?
**A.** Its value is 26 fold.

**Q.** For B6, which “fold change in EC50” value is on record?
**A.** Its value is 3 fold.

**Q.** For Ac-ANYLALIEALIRAAQEQQEKNEAALR-NH2 [peptide 6], which “fold change in EC50” value is on record?
**A.** The value was 51 fold.

**Q.** With B7 as the binder, how does the “fold change in EC50” value read?
**A.** Its value is 2 fold.

**Q.** B8 was tested. Which “fold change in EC50” value did it give?
**A.** The value was 6 fold.

**Q.** Which “fold change in EC50” value does the source give for Ac-ANYAALIEALIRKAQEQQEKNEAALR-NH2 [peptide 5] here?
**A.** The value was 53 fold.

**Q.** How did the “fold change in EC50” value turn out when Ac-ENYLALIEALIRAAQEQQEKNEAALL-NH2 [peptide 9] was run?
**A.** The value was 72 fold.

**Q.** With Ac-ACYAACIEALIRAAQEQQEKNEAALR-NH2 (linker 2-6 via 1,4‑dimethylnaphthyl) [peptide 89] as the binder, how does the “fold change in EC50” value read?
**A.** The value was 75 fold.

— US20140357577A1, “HIV Membrane Fusion Inhibitors” (priority 2011, published 2014)
